Where two headings read alike, the source gives them in different places.
Legend:
mono-ubiquitin [1] = molecular target: T1, mono-ubiquitin (UniProt P0CG48 1-76); test: ITC
mono-ubiquitin [2] = molecular target: T1, mono-ubiquitin; test: ITC; remark: listed apart in the source

B1: HOIP NZF1 (aa350–379) (domain or fragment, human, UniProt Q96EP0 350-379, looked up)
chain: ARGRWACQSCTFENEAAAVLCSICERPRLA
B1: binds (mono-ubiquitin [1]).

B2: SHARPIN NZF (340–387) (domain or fragment, human, UniProt Q9H0F6 340-387, looked up)
chain: AASSLPSPLQPSWSCPSCTFINAPDRPGCEMCSTQRPCTWDPLAAAST
B2: binds (mono-ubiquitin [2]).

B3: SHARPIN (SHANK-associated RH domain-interacting protein) (natural protein, human, UniProt Q9H0F6 1-387, looked up)
chain: MAPPAGGAAAAASDLGSAAVLLAVHAAVRPLGAGPDAEAQLRRLQLSADPERPGRFRLELLGAGPGAVNLEWPLESVSYTIRGPTQHELQPPPGGPGTLSLHFLNPQEAQRWAVLVRGATVEGQNGSKSNSPPALGPEACPVSLPSPPEASTLKGPPPEADLPRSPGNLTEREELAGSLARAIAGGDEKGAAQVAAVLAQHRVALSVQLQEACFPPGPIRLQVTLEDAASAASAASSAHVALQVHPHCTVAALQEQVFSELGFPPAVQRWVIGRCLCVPERSLASYGVRQDGDPAFLYLLSAPREAPATGPSPQHPQKMDGELGRLFPPSLGLPPGPQPAASSLPSPLQPSWSCPSCTFINAPDRPGCEMCSTQRPCTWDPLAAAST
B3: binds (mono-ubiquitin [2]).
